# Measured values as given in the supplement of paper PMC9112550, “Optimization of the antimicrobial peptide Bac7 by deep mutational scanning” (BMC Biology, 2022).
# System: Escherichia coli TOP10
# Test: shrunken log2 fold change of peptide-encoding DNA abundance (4.5 h post-induction vs induction); higher = less antimicrobial activity (less host growth inhibition)
# Settings: time post-induction: 4.5 h; library: site-saturation at positions 5, 18, 19, 20
# 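Also: peptides expressed intracellularly from a pBAD plasmid library in pooled LB shake-flask culture, induced with 0.3% L-arabinose, DNA abundance read by NGS, three biological replicates, DESeq2 with apeglm shrinkage.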
row,Sequence,shrunken log2 fold change
1,RRIRGRPPRLPRPRPRPCCWPRP,0.878
2,RRIRMRPPRLPRPRPRPDTNPRP,1.3
3,RRIRCRPPRLPRPRPRPPHPPRP,0.339
4,RRIRLRPPRLPRPRPRPMGPPRP,0.015
5,RRIRCRPPRLPRPRPRPRGNPRP,0.0747
6,RRIRARPPRLPRPRPRPTGVPRP,0.439
7,RRIRERPPRLPRPRPRPAYMPRP,-0.505
8,RRIRCRPPRLPRPRPRPARVPRP,0.453
9,RRIRNRPPRLPRPRPRPHDAPRP,-0.116
10,RRIRGRPPRLPRPRPRPDTSPRP,0.383
11,RRIRARPPRLPRPRPRPPNQPRP,0.691
12,RRIRLRPPRLPRPRPRPLKDPRP,-0.0949
13,RRIRWRPPRLPRPRPRPPHQPRP,0.235
14,RRIRSRPPRLPRPRPRPIIVPRP,0.0771
15,RRIRYRPPRLPRPRPRPSIRPRP,-0.116
16,RRIRTRPPRLPRPRPRPSHFPRP,-0.315
17,RRIRCRPPRLPRPRPRPKPRPRP,0.749
18,RRIRCRPPRLPRPRPRPSEIPRP,-0.321
19,RRIRGRPPRLPRPRPRPCTCPRP,0.111
20,RRIRLRPPRLPRPRPRPYLCPRP,-0.0953
21,RRIRSRPPRLPRPRPRPRCGPRP,0.34
22,RRIRSRPPRLPRPRPRPHVSPRP,-0.0482
23,RRIRFRPPRLPRPRPRPYTMPRP,-1.06
24,RRIRWRPPRLPRPRPRPLNVPRP,-0.0654
25,RRIRARPPRLPRPRPRPQGNPRP,-0.144

row,Sequence,shrunken log2 fold change
1,RRIRNRPPRLPRPRPRPRLSPRP,0.0939
2,RRIRVRPPRLPRPRPRPCRGPRP,1.11
3,RRIRLRPPRLPRPRPRPAKDPRP,-0.136
4,RRIRWRPPRLPRPRPRPMRCPRP,0.353
5,RRIRTRPPRLPRPRPRPNNGPRP,-0.602
6,RRIRYRPPRLPRPRPRPGNDPRP,-0.356
7,RRIRQRPPRLPRPRPRPPSSPRP,0.0251
8,RRIRQRPPRLPRPRPRPDMVPRP,-0.0075
9,RRIRRRPPRLPRPRPRPCCCPRP,0.0202
10,RRIRYRPPRLPRPRPRPEPLPRP,0.0319
11,RRIRVRPPRLPRPRPRPSILPRP,-0.312
12,RRIRRRPPRLPRPRPRPEAHPRP,0.171
13,RRIRRRPPRLPRPRPRPIKCPRP,-0.17
14,RRIRYRPPRLPRPRPRPILVPRP,-0.237
15,RRIRKRPPRLPRPRPRPCNMPRP,-0.0983
16,RRIRKRPPRLPRPRPRPHCLPRP,-0.0309
17,RRIRKRPPRLPRPRPRPRYWPRP,0.173
18,RRIRARPPRLPRPRPRPLVFPRP,0.397
19,RRIRYRPPRLPRPRPRPTFFPRP,-0.0709
20,RRIRMRPPRLPRPRPRPYSAPRP,0.0186
21,RRIRSRPPRLPRPRPRPLTYPRP,-0.132
22,RRIRIRPPRLPRPRPRPVYSPRP,-0.102
23,RRIRPRPPRLPRPRPRPGCYPRP,0.189
24,RRIRSRPPRLPRPRPRPVDYPRP,-0.268
25,RRIRMRPPRLPRPRPRPPFGPRP,0.789

row,Sequence,shrunken log2 fold change
1,RRIRYRPPRLPRPRPRPIPLPRP,-0.418
2,RRIRARPPRLPRPRPRPGNDPRP,-0.00116
3,RRIRRRPPRLPRPRPRPWPFPRP,-0.0442
4,RRIRARPPRLPRPRPRPCDKPRP,-0.152
5,RRIRRRPPRLPRPRPRPWCWPRP,0.123
6,RRIRLRPPRLPRPRPRPFVCPRP,-0.0489
7,RRIRYRPPRLPRPRPRPLPHPRP,-0.375
8,RRIRFRPPRLPRPRPRPETTPRP,0.533
9,RRIRFRPPRLPRPRPRPKMEPRP,-0.028
10,RRIRFRPPRLPRPRPRPKYTPRP,-0.657
11,RRIRGRPPRLPRPRPRPHMLPRP,0.142
12,RRIRVRPPRLPRPRPRPSGCPRP,-0.194
13,RRIRNRPPRLPRPRPRPQRNPRP,-0.109
14,RRIRIRPPRLPRPRPRPTYAPRP,-0.612
15,RRIRTRPPRLPRPRPRPSQPPRP,-0.16
16,RRIRGRPPRLPRPRPRPQLCPRP,0.0863
17,RRIRLRPPRLPRPRPRPTHHPRP,0.239
18,RRIRGRPPRLPRPRPRPSTPPRP,0.468
19,RRIRVRPPRLPRPRPRPHQSPRP,-0.23
20,RRIRRRPPRLPRPRPRPMWFPRP,-0.0232
21,RRIRWRPPRLPRPRPRPIYYPRP,-0.488
22,RRIRERPPRLPRPRPRPVFRPRP,-0.0125
23,RRIRLRPPRLPRPRPRPICHPRP,-0.368
24,RRIRFRPPRLPRPRPRPHYFPRP,-0.161
25,RRIRWRPPRLPRPRPRPDLRPRP,-0.00728
